Measurements: article PMC12965811 (Nature chemical biology, 2025)
Changes are numbered by the printed parent chain. Each block holds one molecule with its values, some of them ahead of it.

Assays:
[1] = molecular target: full-length human cytoplasmic dynein 1 (wild type) (human) (UniProt Q14204); assay: cryo-EM structure
[2] = molecular target: full-length human cytoplasmic dynein 1 (wild type) (human) (UniProt Q14204); assay: mass photometry
[3] = molecular target: T1, human Lis1 (wild type) (human, UniProt P43034 1-410); assay: mass photometry
T1 sequence: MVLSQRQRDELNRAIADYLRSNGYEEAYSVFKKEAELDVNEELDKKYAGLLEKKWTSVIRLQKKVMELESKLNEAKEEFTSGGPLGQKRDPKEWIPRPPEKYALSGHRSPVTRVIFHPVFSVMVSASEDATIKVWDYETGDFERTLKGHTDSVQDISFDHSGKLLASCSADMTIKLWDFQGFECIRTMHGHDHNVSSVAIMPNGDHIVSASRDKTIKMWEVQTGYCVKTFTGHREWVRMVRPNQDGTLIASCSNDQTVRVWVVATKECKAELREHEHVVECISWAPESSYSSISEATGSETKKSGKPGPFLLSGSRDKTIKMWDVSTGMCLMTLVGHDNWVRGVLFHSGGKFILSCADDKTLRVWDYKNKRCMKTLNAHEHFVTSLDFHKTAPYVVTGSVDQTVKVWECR

[4] = molecular target: T2, Lis1^AAA6 (N203K, D205K and Q222A) (human, UniProt P43034 1-410, N203K | D205K | Q222A); assay: mass photometry
T2 sequence (looked up): T1 sequence with N203K, D205K, Q222A

[5] = molecular target: T3, Lis1^AAA5 (D192K, Y225A and C226D) (human, UniProt P43034 1-410, D192K | Y225A | C226D); assay: mass photometry
T3 sequence (looked up): T1 sequence with D192K, Y225A, C226D

[6] = molecular target: T4, Lis1^All (D192K, D205K, E300A and K303A) (human, UniProt P43034 1-410, D192K | D205K | E300A | K303A); assay: mass photometry
T4 sequence (looked up): T1 sequence with D192K, D205K, E300A, K303A

percent of autoinhibited dynein particles in the Phi^L–Lis1 conformation [1]: 57.3%
stoichiometry N (Lis1 dimer per dynein) [1]: 1
percent of 1:1 dynein:Lis1 complex (no Nde1, within 60 min) [2]: 37%
percent of complex formation (with Nde1, within a minute) [2]: 69%
stoichiometry N (Lis1 dimer per dynein dimer) [2]: 1
stoichiometry N (Lis1 dimer per dynein) [2]: 1
Molecule: human Lis1 (wild type) (from UniProt P43034 1-410) (natural protein)

binding result [3]: binds
binding result [4]: binds
binding result [5]: binds
binding result [6]: binds
B1: human Nde1 (N-terminal residues 1–190) (domain or fragment, UniProt Q9NXR1 1-190, looked up)
chain: MEDSGKTFSSEEEEANYWKDLAMTYKQRAENTQEELREFQEGSREYEAELETQLQQIETRNRDLLSENNRLRMELETIKEKFEVQHSEGYRQISALEDDLAQTKAIKDQLQKYIRELEQANDDLERAKRATIMSLEDFEQRLNQAIERNAFLESELDEKENLLESVQRLKDEARDLRQELAVQQKQEKPR
